From the supplement of paper PMC10567573 come the findings set out here.

First the molecules themselves.
B1: NFE2L1 (parent)
chain: TLDGYGIHPKSIDLDNYFTARRLL
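Also: lentivirally expressed fusions sorted by FACS into six bins by GFP to DsRed ratio, PSI derived from sequencing read proportions per bin multiplied by bin number.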

The variants in this data set derive from B1. The data set is described as follows: protein stability index of a GFP-peptide fusion (GPS, HEK-293T) (PSI 1-6); higher = more stable. The following applies: c terminus: a fixed tail appended.
Take TLDGYGIHPKSADLDNYFTARRLL: the protein stability index is 1.89.

With TLDGYGIHPKSKDLDNYFTARRLL, the protein stability index worked out at 1.85.

In the case of TLDGYGIHPKSLDLDNYFTARRLL, the protein stability index came out at 1.66.

For the variant TLDGYGIHPKSSDLDNYFTARRLL, the protein stability index is 1.87.

Regarding TLDGYGIHPKSCDLDNYFTARRLL, the protein stability index was determined as 2.18.

For TLDGYGIHPKSWDLDNYFTARRLL, the protein stability index stood at 2.05.

Turning to TLDGYGIHPKSNDLDNYFTARRLL, the protein stability index was determined as 1.93.

For the variant TLDGYGIHPKSDDLDNYFTARRLL, the protein stability index stood at 3.05.

In the case of TLDGYGIHPKSEDLDNYFTARRLL, the protein stability index was determined as 2.99.

As to TLDGYGIHPKSTDLDNYFTARRLL, the protein stability index turned out to be 1.99.

On to TLDGYGIHPKSHDLDNYFTARRLL, for which the protein stability index came out at 2.24.

In the case of TLDGYGIHPKSPDLDNYFTARRLL, the protein stability index amounted to 3.06.

On to TLDGYGIHPKSYDLDNYFTARRLL, for which the protein stability index amounted to 1.99.

On to TLDGYGIHPKSFDLDNYFTARRLL, for which the protein stability index was found to be 2.02.

For TLDGYGIHPKSMDLDNYFTARRLL, the protein stability index came to 1.75.

Consider TLDGYGIHPKSRDLDNYFTARRLL, for which the protein stability index is 1.93.

Regarding TLDGYGIHPKSGDLDNYFTARRLL, the protein stability index is 2.43.

With TLDGYGIHPKSVDLDNYFTARRLL, the protein stability index was found to be 1.85.

Take TLDGYGIHPKSQDLDNYFTARRLL: the protein stability index was found to be 2.33.

On to TLDGYGIHPKSIHLDNYFTARRLL, for which the protein stability index was found to be 1.64.

For TLDGYGIHPKSICLDNYFTARRLL, the protein stability index is 2.

Regarding TLDGYGIHPKSIALDNYFTARRLL, the protein stability index is 1.84.

For TLDGYGIHPKSIELDNYFTARRLL, the protein stability index worked out at 2.45.

Turning to TLDGYGIHPKSIILDNYFTARRLL, the protein stability index turned out to be 2.77.

With TLDGYGIHPKSIGLDNYFTARRLL, the protein stability index stood at 2.25.

Regarding TLDGYGIHPKSIKLDNYFTARRLL, the protein stability index worked out at 1.72.

For the variant TLDGYGIHPKSIFLDNYFTARRLL, the protein stability index worked out at 1.48.

With TLDGYGIHFKSIDLDNYFTARRLL, the protein stability index was 1.55.

TLDGYGIHLKSIDLDNYFTARRLL: the protein stability index is 2.7.

As to TLDGYGIHAKSIDLDNYFTARRLL, the protein stability index worked out at 1.68.

For the variant TLDGYGIHTKSIDLDNYFTARRLL, the protein stability index is 1.95.

Consider TLDGYGIHVKSIDLDNYFTARRLL, for which the protein stability index was determined as 1.5.

For TLDGYGIHSKSIDLDNYFTARRLL, the protein stability index worked out at 1.71.

As for TLDGYGIHKKSIDLDNYFTARRLL, the protein stability index came out at 2.24.

Turning to TLDGYGIHGKSIDLDNYFTARRLL, the protein stability index was determined as 1.91.

TLDGYGIHHKSIDLDNYFTARRLL: the protein stability index amounted to 2.14.

As to TLDGYGIHIKSIDLDNYFTARRLL, the protein stability index was found to be 2.39.

With TLDGYGIHNKSIDLDNYFTARRLL, the protein stability index was 2.66.

Regarding TLDGYGIHWKSIDLDNYFTARRLL, the protein stability index is 2.16.

As for TLDGYGIHYKSIDLDNYFTARRLL, the protein stability index is 1.68.

Regarding TLDGYGIHEKSIDLDNYFTARRLL, the protein stability index amounted to 1.97.

TLDGYGIHQKSIDLDNYFTARRLL: the protein stability index amounted to 2.08.

With TLDGYGIHRKSIDLDNYFTARRLL, the protein stability index turned out to be 2.22.

In the case of TLDGYGIHDKSIDLDNYFTARRLL, the protein stability index turned out to be 1.88.

TLDGYGIHMKSIDLDNYFTARRLL: the protein stability index was determined as 2.05.

Regarding TLDGYGIHCKSIDLDNYFTARRLL, the protein stability index worked out at 1.62.

As to TLDGYGIHPQSIDLDNYFTARRLL, the protein stability index turned out to be 2.12.

As to TLDGYGIHPFSIDLDNYFTARRLL, the protein stability index came to 1.87.

With TLDGYGIHPESIDLDNYFTARRLL, the protein stability index worked out at 1.65.

For TLDGYGIHPYSIDLDNYFTARRLL, the protein stability index came to 1.39.

For the variant TLDGYGIHPTSIDLDNYFTARRLL, the protein stability index was 1.94.

Consider TLDGYGIHPNSIDLDNYFTARRLL, for which the protein stability index was 2.44.

As to TLDGYGIHPVSIDLDNYFTARRLL, the protein stability index turned out to be 1.5.

Turning to TLDGYGIHPDSIDLDNYFTARRLL, the protein stability index came out at 2.37.

In the case of TLDGYGIHPGSIDLDNYFTARRLL, the protein stability index is 1.93.

Turning to TLDGYGIHPMSIDLDNYFTARRLL, the protein stability index was 1.88.

Regarding TLDGYGIHPASIDLDNYFTARRLL, the protein stability index is 1.79.

TLDGYGIHPRSIDLDNYFTARRLL: the protein stability index stood at 2.11.

For TLDGYGIHPCSIDLDNYFTARRLL, the protein stability index was 2.54.

Turning to TLDGYGIHPLSIDLDNYFTARRLL, the protein stability index is 2.01.

Take TLDGYGIHPISIDLDNYFTARRLL: the protein stability index came out at 1.94.

Take TLDGYGIHPSSIDLDNYFTARRLL: the protein stability index stood at 2.22.

Take TLDGYGIHPWSIDLDNYFTARRLL: the protein stability index is 2.24.

For TLDGYGIHPPSIDLDNYFTARRLL, the protein stability index amounted to 1.73.

Regarding TLDGYGIHPHSIDLDNYFTARRLL, the protein stability index is 2.2.

Turning to TLDGYGIPPKSIDLDNYFTARRLL, the protein stability index was determined as 1.94.

In the case of TLDGYGIYPKSIDLDNYFTARRLL, the protein stability index was 1.72.

Regarding TLDGYGIQPKSIDLDNYFTARRLL, the protein stability index came out at 1.79.

Take TLDGYGIRPKSIDLDNYFTARRLL: the protein stability index was 1.55.

Turning to TLDGYGISPKSIDLDNYFTARRLL, the protein stability index turned out to be 1.81.

For TLDGYGIVPKSIDLDNYFTARRLL, the protein stability index is 2.28.

On to TLDGYGINPKSIDLDNYFTARRLL, for which the protein stability index was found to be 1.78.

TLDGYGITPKSIDLDNYFTARRLL: the protein stability index was 2.05.

In the case of TLDGYGIWPKSIDLDNYFTARRLL, the protein stability index was 1.66.

As to TLDGYGIMPKSIDLDNYFTARRLL, the protein stability index came to 1.82.

Consider TLDGYGIHPKWIDLDNYFTARRLL, for which the protein stability index turned out to be 1.67.

Regarding TLDGYGIHPKHIDLDNYFTARRLL, the protein stability index worked out at 1.89.

As for TLDGYGIHPKQIDLDNYFTARRLL, the protein stability index was determined as 1.89.

In the case of TLDGYGIHPKIIDLDNYFTARRLL, the protein stability index turned out to be 1.4.

As for TLDGYGIHPKPIDLDNYFTARRLL, the protein stability index was 2.04.

Turning to TLDGYGIHPKCIDLDNYFTARRLL, the protein stability index is 1.98.

With TLDGYGIHPKKIDLDNYFTARRLL, the protein stability index turned out to be 2.58.

Regarding TLDGYGIHPKDIDLDNYFTARRLL, the protein stability index worked out at 2.38.

As to TLDGYGIHPKMIDLDNYFTARRLL, the protein stability index stood at 1.57.

As for TLDGYGIHPKGIDLDNYFTARRLL, the protein stability index is 1.91.

In the case of TLDGYGIHPKLIDLDNYFTARRLL, the protein stability index was 2.

For TLDGYGIHPKAIDLDNYFTARRLL, the protein stability index amounted to 1.49.

Take TLDGYGIHPKYIDLDNYFTARRLL: the protein stability index came out at 1.67.

TLDGYGIHPKNIDLDNYFTARRLL: the protein stability index worked out at 2.19.

Consider TLDGYGIHPKEIDLDNYFTARRLL, for which the protein stability index is 2.28.

With TLDGYGIHPKVIDLDNYFTARRLL, the protein stability index was 2.49.

Turning to TLDGYGIHPKTIDLDNYFTARRLL, the protein stability index was determined as 1.97.

Regarding TLDGYGIHPKFIDLDNYFTARRLL, the protein stability index turned out to be 2.29.

On to TLDGYGIHPKRIDLDNYFTARRLL, for which the protein stability index came to 1.97.
